Measured values as given in the nanobody polyreactivity screen of Harvey et al. (2022).

assay: yeast display, Sf9 membrane polyspecificity reagent, FACS + sequencing; frameworks hold sequencing errors
Summary of the method: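 Nanobodies came from a synthetic yeast display library in Saccharomyces cerevisiae BJ5465, induced with galactose for 36–48 hours and stained for 1 hour at 4 °C with 10% biotinylated, detergent-solubilized Sf9 membrane reagent. Cells were enriched on streptavidin microbeads and then FACS-sorted, with low and high (top ~1%) gates set on anti-HA fluorescence for expression and streptavidin fluorescence for reagent binding. Each polyreactivity label reflects the gate a clone came from. Genes were amplified by colony PCR, sequenced by MiSeq 2 × 250 and filtered by CDR length.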

Sequence | polyreactivity (PSR sort gate)
QVQLVESGGGLVQAGGSLRLSCAASGRIFGGYAMGWYRQAPGKERELVPSITGRATSTYYADSVKGRFTISRDNAKNTVYLQMNRLKPEDTAVYYFNALYRKYRNQWYISNYGYYYWGQGTQVTVSS | low polyreactivity
QVQLVESGGGLVQAGGSLRLSCAASGRIFGHYAMGWYRQAPGKERELVAAISRSGTRTYYADSVKGRFTISRDNAKNTVYLQMNSLKPEDTAVYYCAAYTYKGIYYYWGQGTQVTVSS | high polyreactivity
QVQLVESGGGLVQAGGSLRLSCAASGRIFGHYAMGWYRQAPGKERELVASISSNGGSTYYADSVKGRFTISRDNAKNTVYLQINSLKPEDTAVYYCAARVSTVFKRYYYWGQGTQVTVSS | high polyreactivity
QVQLVESGGGLVQAGGSLRLSCAASGRIFGHYVMGWYRQAPRKERELDAAITRGDSTYYADSVKGRFTISRDNAKNTVYLEMNSLKPEDTAVYYCAARVWRVDARDRYYWGQGTQVTVSS | high polyreactivity
QVQLVESGGGLVQAGGSLRLSCAASGRIFGINAMGWYRQAPGKERELVAAISWRSGSTYYADSVKGRFTISRDNAKNTVYLQMNSLKPEDTAVYYCAAKQDQDYYWGQGTQVTVSS | low polyreactivity
QVQLVESGGGLVQAGGSLRLSCAASGRIFGINVMGWYRQAPGKERELVARITGRGGRTYYADSVKGRFTISRDNAKNTVYLQINSLKPEDTAFYYCAADARYEAYDYWGQGTQVTVSS | high polyreactivity
QVQLVESGGGLVQAGGSLRLSCAASGRIFGIYAMGWYRQAPGKERELVAAISFIGGRTYYADSVKGRFTISRDNAKNTVYLQMNSLKPEDTAVYYCAARTVPSSRREYWGQGTQVTVSS | high polyreactivity
QVQLVESGGGLVQAGGSLRLSCAASGRIFGIYTMGWYRQAPGKERELVAAITQGGGSTYYADSVKGRFTISRDNAKNTVYLQMNSLNPEDTAVYYCAARPKSPSGTRRYYWGQGTQVTVSS | high polyreactivity
QVQLVESGGGLVQAGGSLRLSCAASGRIFGKNAMGWYIQAPRKERDLVAAITSTGGTTYYADSVMGRFTISRDNAKNTVYLQMNSLKPEDSAVYDCAKDGQTNNETQGLKYDYWGQGTQLTVSS | low polyreactivity
QVQLVESGGGLVQAGGSLRLSCAASGRIFGKNVMGLYRKAPGKERELVAAINRSSRTYYADSVKGRFTISRDNAKNTVYLQMNSLKPEDTAVYYCAAHAFPDGDYWGQGTQVTVSS | high polyreactivity
QVQLVESGGGLVQAGGSLRLSCAASGRIFGKYAMGWYRHAPGKERELVAAIRSRGSTTYYADSVKGRFTISRDNAKNTVYLQMNSLKPEDTAVYYCAKDVGGKPWYPYGYWGQGTQVTVSS | high polyreactivity
QVQLVESGGGLVQAGGSLRLSCAASGRIFGKYAMGWYRQAPGKERELVARISFSGGTTYYADSVKGRFTISRDNAKNTVYLQMNSLKQEDTAVYYCNARRVWSQRWAYDSWGQGTQVTVSS | high polyreactivity
QVQLVESGGGLVQAGGSLRLSCAASGRIFGKYAMGWYRQAPRKERELVARISFSGGTTYYADSVKGRFTISRDNAKNTVYLQMKSLKPEDTAVYYGNARRVWSQRWAYDSWGQGTQVTVSS | high polyreactivity
QVQLVESGGGLVQAGGSLRLSCAASGRIFGLNAMGWYRQAPGKERELVAAITGSVGSTYYADSVKGRFTISRDNAKNTVYLQMNSLKPEDTAVYYCYAEYDSRRSSYYRHFNYWGQGTQVTVSS | low polyreactivity
QVQLVESGGGLVQAGGSLRLSCAASGRIFGLNAMGWYRQAPGQERELVAAIDIIGGSTYYADSVKGRFTISRDNAKNTVYLQMNSLKPEDTAVYNCAAEGDFWRFVEYDYWGQGTQVTVSS | low polyreactivity
QVQLVESGGGLVQAGGSLRLSCAASGRIFGLNTMGRYRQAPGKERELVAAITSSAGSTYYADSVKGRCTISRDNAKNTVYLQMNSLKPEDTAVYYSAARVSYLGSFTSQRYYYWGLGTQVTVSS | high polyreactivity
QVQLVESGGGLVQAGGSLRLSCAASGRIFGLYAMGWYRQAPGKEREFVAAIRLSGGSTYYADSVKGRFTISRDNAKNTVYLQMISLKPEDTAVYYCAADLSYNRGRGSRVYYWGQGTQVTVSS | high polyreactivity
QVQLVESGGGLVQAGGSLRLSCAASGRIFGLYAMGWYRQAPGKERELVAAITKRGGTTYYADSVKVRFTISRDNAKNTVYLQMKSLKPEDTAVYYCAAKRSVLRTADYDYWGQGTQVTVSS | high polyreactivity
QVQLVESGGGLVQAGGSLRLSCAASGRIFGMYTKGWYRQETGKETELVAAINTGGSTYYADSVKGRFTISRDNAKNTVYLQMNSLKPEDTAVYYCNAETGWPWIYHYDYWGQGTQVTVSS | low polyreactivity
QVQLVESGGGLVQAGGSLRLSCAASGRIFGNNAMGWYRQAPGKERELVAAIRSRGTRTYYADSVKGRFTISRDNAKNTVYLQMNSLKPEDTAVYYCATTSLTGRYDRYDYWGQGTQVTVSS | high polyreactivity
QVQLVESGGGLVQAGGSLRLSCAASGRIFGNYAMGWYRPATGKESELVAAISGGGSTYYADSVKGRFTISRDNAKNTVYLQMNSVKPEDTAVYYCAARFMWSVFGRKGGYWGQGTHVTVSS | low polyreactivity
QVQLVESGGGLVQAGGSLRLSCAASGRIFGNYAMGWYRQAPGKERELVAAISGGGSTYYADSVKGRFTISRDNAKNTVYLQMNSLKPEDTAVYYCNAKTYYPPFGYWGQGTQVTVSS | low polyreactivity

Sequence | polyreactivity (PSR sort gate)
QVQLVESGGGLVQAGGSLRLSCAASGRIFGPNAMGWYRQAPGKERELVAAITGSGGSTYADSVKGRFTISRDNAKNTVYLQMNSLKREDTAVYYCAKKTWYSYYWGQGTQVTVSS | high polyreactivity
QVQLVESGGGLVQAGGSLRLSCAASGRIFGPYAMGWYRQAPGKDRELVAAISASGGRTYDADSVKGRFTISRDNAKNTVYLQMNSLKPEDTAVYYCARRYWHSGWIFDYWGQGTQVTVSS | high polyreactivity
QVQLVESGGGLVQAGGSLRLSCAASGRIFGPYAMGWYRQAPGKERELVAAITQRGGSTSYADSVKGRFTISRDNAKKTVYLQMNSLKPEDTAVYYCNVLSYGSIPRRGYYYVWGDYWGQGTQVTVSS | high polyreactivity
QVQLVESGGGLVQAGGSLRLSCAASGRIFGPYAMGWYRQAPRKERELVASISYSGGSTYYADSVKGRFTISRDNAKNTVYLQMNSLKPEDTAVYYCAKGGYWRGYNYWGQGTQVTVSS | low polyreactivity
QVQLVESGGGLVQAGGSLRLSCAASGRIFGPYTKGWYRQAPGKERQLVAAISCSGGSTYYADSVKGRFTISRDNAKNTVYLQMNSLKPEDTAVSYCKADHPFPQYEGGSSGQGTQVTVSS | low polyreactivity
QVQLVESGGGLVQAGGSLRLSCAASGRIFGPYTMGWYRQAPGKERELVAAISSTGGSTYYADSVKGRFTISRDNAKNTVYLQRNSLKPEDTAVYYCEYDYWGQGTQVTVSS | low polyreactivity
QVQLVESGGGLVQAGGSLRLSCAASGRIFGPYTMGWYRQAPGKERELVAAITGRVVSTYYADSVKGRFTISRDNAKNTVYLQMNSLKPEDTAVYYCAKASHYWSQRFGYWGQGTQVTVSS | high polyreactivity
QVQLVESGGGLVQAGGSLRLSCAASGRIFGPYVMGWYRQAPGKEREFVAAISRRTGSTYYADSVKGRFTISRDNAKNTVYLQMNSLKPEDTAVYYCAATYYFSHVVGYGYWGQGTQVTVSS | high polyreactivity
QVQLVESGGGLVQAGGSLRLSCAASGRIFGPYVMGWYRQAPGKERELVAAISTSGTSTYYADSVKGRFTISRDNAKNTVYLQMNSLKPEDTAVYYCAKRSGARHRLMDYWGQGTQVTVSS | low polyreactivity
QVQLVESGGGLVQAGGSLRLSCAASGRIFGRNAMGWYRPAPGKERELVAAITSGGSTNYADSVKGRFTISRDNAKNTVYLQMNSLKPEDAAVYYCAARRVIYVRLDYDYWGQGTQVTVSS | high polyreactivity
QVQLVESGGGLVQAGGSLRLSCAASGRIFGRNAMGWYRQAPGKEREFVAAISRSGASTYYADSVKGRFTISRDNAKNTVYLQMNSLKPEDTAVYYCARTTRQSSAYTYSDEYDYWGQGTQVTVSS | high polyreactivity
QVQLVESGGGLVQAGGSLRLSCAASGRIFGRNTMGWYRQAPGKERELVAAITGTGTTYADSVKGRFTISRDNAKNTVYLQMNSLKPEDTAVYYCAARRSVYTWVSRYNYWGQGTQVTVSS | high polyreactivity
QVQLVESGGGLVQAGGSLRLSCAASGRIFGRNVMGWYRQAPGKERELVAAISWIGGSTSYADSVKGRFTISRDNAKNTVYLQMNSLKPEDTAVYYCAAKPYGYRHYWGYDYWGQGTQVTVSS | high polyreactivity
QVQLVESGGGLVQAGGSLRLSCAASGRIFGRYAMGWYRQAPGKERELVAAITSGGRTSYADSVKGRFTISRDNAKNTVYLQMNSLKPEDTAVYYWNVVSRNSIRFDYWGQGTQVTVSS | high polyreactivity
QVQLVESGGGLVQAGGSLRLSCAASGRIFGRYAMGWYRQAPGKERELVAAITSSGGSTYYADSVKGRFTISRDNAKNTVYLQMNSLKPEDTAVYYCAADSQYKYDYWGQGTQVTVSS | high polyreactivity
QVQLVESGGGLVQAGGSLRLSCAASGRIFGRYAMGWYRQAPGKERELVAVISSGGSTYYADSVKGRFTISRDNAKNTVYLQMNSLKPEDTAVYYCAAVNRGGYDYWGQGTQVTVSS | low polyreactivity
QVQLVESGGGLVQAGGSLRLSCAASGRIFGRYAMGWYRQAPGKERELVAVISSGGSTYYADSVKGRFTISRDNAKNTVYLQMNSLKREDTAVYYCAAVNRGGYDYWGQGTQVTVSS | low polyreactivity
QVQLVESGGGLVQAGGSLRLSCAASGRIFGRYAMGWYRQAPGKEWELVAAISNGGTTTYADSVKGRFTLSRDNAKNTVYLQMNSLKPEDTAVYYCADDWSYKIYVIQRWYGVDYWGQGTQVTVSS | low polyreactivity
QVQLVESGGGLVQAGGSLRLSCAASGRIFGRYTMGWYRQAPGKERELVAAISARGGSTYYADSVKGRFTISRDNAKNTVYLQMNSLKPEDTAVYYCNTVRVHGFPIDRIYDYWGQGTQVTVSS | high polyreactivity
QVQLVESGGGLVQAGGSLRLSCAASGRIFGSYAMGWYRQAPGKERELVAAISWRGTSTYYADSVKGRFTISRDNAKNTVYLQMNSLKPEDTAVYYCAARGLWPYDYWGQGTQVTVSS | low polyreactivity
QVQLVESGGGLVQAGGSLRLSCAASGRIFGSYAMGWYRQAPGKERELVAAITRSGGSTYYADSVKGRFTISRDNAKNTVYLQMNSLKPEDTAVYYCAAYFRFSGSAKFGYWGQGTQVTVSS | high polyreactivity
